Assay results from a protein production outcome set (Wang et al. 2014).

Test: label from the status in PepcDB records

Sequence | protein production
MTRRTAFFFDELCLWHAAGPHALTLPVGGWVQPPAAAGHAESPETKRRLKSLLDVSGLTARLQLRSAPPASDEDLLRVHPAHYLERFKALSDAGGGSLGQDAPIGPGSYEIARLSAGLAIAALDAVLAGEADNAYSLSRPPGHHCLPDQAMGFCFFANIAVAIEAAKARHGVERVAVLDWDVHHGNGTQAIYYRRDDVLSISLHQDGCFPPGYSGAEDIGEDRGRGFNLNVPLLPGGGHDAYMQAMQRIVLPALERFRPQLIVVASGFDANAVDPLARMQLHSDSFRAMTAMVRDAAERHAGGRLVVVHEGGYSEAYVPFCGLAVIEELSGVRSAVRDPLRDFIELQQPNAAFRDFQRQRLEELAAQFGLCPAQPLQAAR | failed
MTRTISRILVTGTSGQLGALVIEELLKKIHASHLIAAARDPKALMAFSRRGVETRLLDYTDQISIEAAFQGVERLLLVSSNVIDQRLVQHRNVIEAAARAGVGLFAYTSLLHADNSSLLLAKDHVQTEALLKGSGIPYVLLRNGWYTENYTDSIGAALVHGAVLGSAGTGRIAAATRADYAAAAAAILASDVDQAGRTYELAGDEAFTMPEYAAEIAQQSGKPVIYRDLPEAEYAAILMQVGLPESFAAILAQSDIGASQGALFDDSHQLSTLIGRPTTPLREVVAKALSAVR | failed
MTRTVTGDTVQTRWGPVQVRVTVRNGVITEVTAVACPQENPKDREINSYAIPQLRREALAAQSAQIDSVSGATYTSDGYRQSLQSALDSAGLLEHHHHHH | not failed
MTSASAALPQQPGRTKAFLRLVMIEHSVFALPFAYIAALTAMFQWDRNIHWVRLLLVTVAMVGLRTFAMAANRIIDREIDARNPRTAHRELVTGAMSVRHAWTGALVALVFFLGAAALLNPLCLALAPIAVIPMVVYPYGKRFTNFPQAILGLAQAMGPVGGWLAISGEWSWDAVILGLAVGVWIGGFDLIYACQDVETDREVGVMSVPARFGIQAAIWGARVCHAITTALLVWYAFATDAGAFFWFGLVIVAGAFLYEHSIVKPHDLSRLNRAFFSTNGFIGISLFVCALGDLLVRGLTV | failed
MTSGATRYRLSCSLRGHELDVRGLVCCAYPPGAFVSVSRDRTTRLWAPDSPNRSFTEMHCMSGHSNFVSCVCIIPSSDIYPHGLIATGGNDHNICIFSLDSPMPLYILKGHKNTVCSLSSGKFGTLLSGSWDTTAKVWLNDKCMMTLQGHTAAVWAVKILPEQGLMLTGSAGKTVKLWKAGRCERTFSGHEDCVRGLAILSETEFLSCANDASIRRWQITGECLEVYYGHTNYIYSISVFPNCRDFVTTAEDRSLRIWKHGECAQTIRLPAQSIWCCCVLDNGDIVVGASDGIIRVFTESEDRTASAEEIKAFEKELSHATIDSKTGDLGDINAEQLPGREHLNEPGTREGQTRLIRDGEKVEAYQWSVSEGRWIKIGDVVGSSGANQQTSGKVLYEGKEFDYVFSIDVNEGGPSYKLPYNTSDDPWLTAYNFLQKNDLNPMFLDQVAKFIIDNTKGQMLGLGNPSFSDPFTGGGRYVPGSSGSSNTLPTADPFTGAGRYVPGSASMGTTMAGVDPFTGNSAYRSAASKTMNIYFPKKEAVTFDQANPTQILGKLKELNGTAPEEKKLTEDDLILLEKILSLICNSSSEKPTVQQLQILWKAINCPEDIVFPALDILRLSIKHPSVNENFCNEKEGAQFSSHLINLLNPKGKPANQLLALRTFCNCFVGQAGQKLMMSQRESLMSHAIELKSGSNKNIHIALATLALNYSVCFHKDHNIEGKAQCLSLISTILEVVQDLEATFRLLVALGTLISDDSNAVQLAKSLGVDSQIKKYSSVSEPAKVSECCRFILNLL | failed
MTSHHAIEVTKTVLEVADVAWTAVETYHHHHHHQDENHESTNPISDPRDRELEALRQENRRLRTLLESNLKLFETLAESAAFSHDCPSDLYARLVTMVTSRDFLARLENLRQALSNGTQNQFPFKEPTEDDVKTVEVLIEMDHQEPSWWVLVTDDMVPSNVEEQSAIDNEHYIVVNEEHVIDAVAHFLAKCIMSNPKAKNLKPEELQKLLVQEVTALSKVGKVVDIWHAGKMFYTLSTWGLAFGGLYQARGVLKIAAKGVHATSKVVLRAL | failed
MTSIWGQIQHILQNTLAPGLFKVWISPLAGEVDGSTLRVEAPNEFVAGWVRDRLFEDIRTAACGVIGDTVEVVVTAGAPAAAAPRPVLAPRPAVVEVVPTAAPVPSVVPAVEARPSGHAPRRLSAETQQAQEQLGLPLDWAPVPQSRTNWRFSFDDFIVGPNNELACAAARGMCRDGLMTDTLFLSSGPGLGKTHLLHAVGRSLCESSNRSNPNVAYLTAEEFASRLIAALKARDVERFKARYRDVDVLLLEDVHFLQGKEKMQDEVLATVKALQSRGSRIVFSSSFAARDLKNVDNQLVSRFCSGFLAGIERPDFDTRRRILREKARIYQVMLPDNVTDLLAERISTDVRQIESCLHNLILKAKLLNRQISLEMAFEIIGNYAQAETQLDFEGIVRMVCEGFGLSPEQLNSRSRKREYVVARNAAYLLARKHTDLSLKEIGDRFNRRHSTVLKGITALEREMNRETPLGRQVANTISLLERNGRITHARH | failed
MTSKSRPNRDLAGRLALAAQLALVLVLAAAPELALAQSTMPGQQLLTFAKNFIIAPIALFAIVISGVAAFIRPDLIKTTGYIAIIAVILYFLLANADRLMQAIRAG | failed
MTSNERILQPFTLPNGTELKNRLLMAPMTTCTGYFDGTVTSELVEYYRARAGSIGTIIVECCFIDDYGLAFPGAIGIDNDEKIAGLAKIAEAIKAEGSKAILQIYHGGRMVDPQLIGGRQPVAPSAIAAPREGAAMPRALSGEEVEGMIAKFGDGVRRAILAGFDGVEIHGANTYLIQQFYSPNSNQRDDEWGGSRDNRARFPLAVLDITHKMARQYADDAFIIGYRFSPEEMEVPGIRFDDTMYLLEKLAARGVDYLHFSVGATLRPSIVDTSDATPLIEKYCAMRSDTLAQVPVMGVGGVVNAADAEQGLDHGYDLIAVGRACIAYPDWASRIAAGEELELFIDSTQREALHIPEPLWRFSLVEAMIRDMSMGDAKFKPGMFVETVHDDANELVINVSLENDHIADIELAASPVQTVEFTTSFEEIRERILTANTPHVDAISGATSQSEAVKKAVAKAMLKSSKALAAEEGGNDAAPKSYDVVVVGSGGAGLAAAIQAHDEGASVLIVEKMPTIGGNTIKASAGMNAAETRFQRVKGIEDSKELFYQETLKGGHNKNNPQLLRRFVENAPQAIEWLADRGIMLNDITTTGGMSIDRTHRPRDGSAVGGYLISGLVRNITKRGIDVLLDTSVEEILMRGDEVSGVRLINDEKEVIEVQTKSIVVATGGFSANSAMVVKYRPDLEGFVTTNHKGATGSGIALLERIGAGTVDMGEIQIHPTVEQQTSYLISESIRGGGAILVNQQGNRFFNEMETRDKVSAAIIALPEHYACIVFDEHVRAKNKAADEYIAKGFVTSASSPRELAEKLGMDYHAFLATLECYNGAVEKQHDEQFGRTTALRAPINEGPFHAIRIAPGVHHTMGGVTINTDGEVLNVAQQPICGAYAAGEVVGGIHGGNRIGGNAVADIIIFGTLAGHQAAKRARG | failed
MTSSEQPRTYWLEHAWLGTHVEPGVALDVRDGRITAVNQGVATPPPGAGILRGLTLPGLANAHSHAFHRALRGTVQVGSGTFWTWREVMYSVADRLTPDTYHALARAVYAEMALAGITAVGEFHYVHHAPGGTPYADPNAMGEALIEAAAEAGVRITLLDTCYLSSGFGEPPNTHQRRFSDGTADAWAERCSVLKERDHARIGAAIHSVRAVPADQLATVAQWAEERRAPLHVHLSEQTAENDACRQAHGRTPTRLLADHGVLGARTTGVHNTHLTDEDIALLGGSRTGTCMCLTTERDLADGIGPAAALQRAGSPLSLGSDSHAVVDLLEEARAMELNERLRTRARGHWTAAALLRAATADGHAALGWDDTGRIEAGARADLATIALDSVRTAGPLPRLGAETAVFAATAADVRHTVVGGRHVVRDGAHTLVPDVPQALARAVEALRA | failed
MTSSMLFNITTFTYLVSMLAFFAFLASRNRHLGMAGSLISYFGFFVHTAAILLRWKESYDIGHGHAPLSNLYESVVFFAWTIVLIFGIIDLKYKYRVVGAFVMPFALLGMAWAQLTLNSGIEPLVPALQSNWLLYHVVTCFLGYAAFAVACGISIMYLIKAGKEDSSQSAQAGGIISMFPPTKILDDLNYKAIMIGFPLLTLGIITGAAWANYAWGTYWSWDPKETWSLIVWFVYAAFLHARFTRGWVGKRAAILSIVGFAATIFCYLGVNLLLSGLHSYGGG | failed
MTSSSQRLALLEAVVEQSFNAVLITDANLANGGPLIVYVNPAFCTMTGYTAEELIGLSPRILQGADTDPQVIERLRQCLSERLFFEGSTVNYRADGSPYVVEWKITPVRDDAGQVCNFVSVQQNISPRIRAEREQHLLAQALNAAFDPIIITDRNSTIVFANEAFQLITGYSAPEIIGQNPRMLRSGKHDALFYAQFNESLASGEPFRTTFINKRKDGSLFYAEHSISPLRNVEGAMTHYVSISQDVTTRLGREQKLLEIAHSDTLTGLDNRRAAEHTLERLINTARMAGKPFSFIICDIDHFKSVNDRYGHPAGDSVLKSVAAILKHRIRAFDVAARWGGEEFLILVPDSSLKQAAELAERVRKGVESLEIPEAGPVTISLGVAELSPGETAASLIQRADKVLYQAKRLGRNRVEIAQADDPAY | failed
MTSTFLLEIGTEELPADFARQALDQLQDRVGRDLLDSRLDHKSVQVLGTPRRLVVRVHGLADRQPDLEEDQKGPPIAQAFKDGVPGPAAIGFSKRCGVDPSQLEVRNTPKGECVFASVRTEGQNSVDLLQELIPAWINGLQGRRFMRWGTGSQRFSRPIRWLLALKGVDLIPVEIPGADPPVRSDRFSRGHRLHGDQPLPIDTAEDYDDTLAAAGVIVDRQQRAALIRSQLDASADQLNGLPDCPESLFEELVDLVESPRLLQGSIAERFLSLPPEVIITVMQAHQRYVPLKVPEVTPDPLQLEATVVLQRDFLLVGNGLEAADALITRGNERVLAARLADAEFFLSVDRRQPSSARREALDRVTFAEGLGSLLDRCQRIERTARQLVDQLNLDAHQGEAAIRAAHFCKHDLVSQMVGEFPELQGLMGGKYLLEEGEPTEVALAVVEHYLPRGAGDQLPSSDAGAVVALAERLELLLSIFAKGERPSGSSDPYALRRAGNGLLQIVWDRGWRLDLSRFLGSAVEDWAALFPEFAIDSSALHQDLCQLLRQRIVSQLEDEGFVPDLVQAVSAESVAT | failed
MTSTSITAVEYQSKRLESRLLKETREYVIALPEGYAQSLEAYPVVYLLDGEDQFDHMASLLQFLSQGTMPQIPKVIIVGIHNTNRMRDYTPTHTLVLPSGNKGNPQYQHTGGAGRFLDFIEKELAPSIESQLRTNGINVLVGHSFGGLVAMEALRTDRPLFSAYLALDTSLWFDSPHYLTLLEERVVKGDFKQKQLFMAIANNPLSPGFGVSSYHKDLNLAFADKLTKLAPKGLGFMAKYYPEETHQSVSHIGLYDGIRHLFKDFAIDIYSDSFSKQQVIDQYGVLSERFGHKVTPSQQYLEQLIQYSDRQQLTERKQMLEGLRQHFAKD | not failed
MTSYPQQPQQTEQYGVQAGEPPLWAPYYGAPIGAAIRRFFKKYTAFSGRASRSEYWWVALALGVIGIVLQILTGILGAAGSTTTSSGTVPGPGAVVGLILIFVFYLAVLIPSIALLVRRLHDGNFSGWLALLGLIPFVGGLAILVFALLPSNPAGQRFDQPTA | failed
MTTAQMSVYFFLQAAAILLVCRLVGMLAKRLGQPQVVGEMIAGVMLGPSLFGLLAPGAQAALFPKQTMDVLYVFAQFGVGMYMFLVGTDFRSDHFRARYRSAMSVSLAGIAVPFLLAFAMCPWLINVEGLFSEKAKLMEASLFLGAAIAITAFPMLARIIHERGLATSPLGTLALTAGAFDDASAWCILAVVLASFGGSWGSAYLAIGGGIGYAVFMIFVGRHLLKRLADHVVPGQPLSNSVLAVVLILFCVSAWAMDAIGIHAVFGGFLLGVCLPRGALTEKLREMLQPFVVVLLLPMFFTYSGLKTQLSVLLQPQIMLAGVAILAASFIGKGVACWAAARTTGENNRDAMAIGALMNARGLMELIIINIGLQAGVIEQGLFSVLVLMAILSTLMATPLFNWIMRRHAHVSDAVPSLQSR | failed
